Values joined by “and” are separate entries in the source; they are usually repeats but may differ in a detail not shown here. Equal entries are not always repeated.
These molecules were tested against HIV-1LAI envelope gp120 labeled with radioactive iodine (HIV-1 LAI) (UniProt P03377) (assay: 125I-gp120, peptide array).
Molecule CCR5 161-178 (peptide) has a counts minus background (counts per 20 min) of 118. STRL33 29-46 (peptide) was tested, and the counts minus background (counts per 20 min) was 534 and 634. CCR5 201-218 (peptide) was tested, and the counts minus background (counts per 20 min) was 180. For CCR5 105-122 (peptide), the counts minus background (counts per 20 min) was 80. For STRL33 61-78 (peptide), the counts minus background (counts per 20 min) was 412 and 348. STRL33 113-130 (peptide) was tested, and the counts minus background (counts per 20 min) was 744 and 908. Molecule CCR5 165-182 (peptide) has a counts minus background (counts per 20 min) of 98. For STRL33 297-314 (peptide), the counts minus background (counts per 20 min) was 144 and 82.5. STRL33 309-326 (peptide) was tested, and the counts minus background (counts per 20 min) was 112 and 122. Molecule CCR5 237-254 (peptide) has a counts minus background (counts per 20 min) of 121. In the case of STRL33 41-58 (peptide), the counts minus background (counts per 20 min) is reported as 570 and 284. With CCR5 241-258 (peptide) the counts minus background (counts per 20 min) was 214. CCR5 325-342 (peptide) gave a counts minus background (counts per 20 min) of 100. In the case of STRL33 105-122 (peptide), the counts minus background (counts per 20 min) is reported as 500 and 408. STRL33 109-126 (peptide) was tested, and the counts minus background (counts per 20 min) was 352 and 510. Molecule CCR5 221-238 (peptide) has a counts minus background (counts per 20 min) of 102. In the case of STRL33 33-50 (peptide), the counts minus background (counts per 20 min) is reported as 606 and 372. STRL33 133-150 (peptide) was tested, and the counts minus background (counts per 20 min) was 702 and 568.

Each molecule was assayed against HIV-1LAI envelope gp120 labeled with radioactive iodine (HIV-1 LAI), P03377 (assay: 125I-gp120, peptide array).
Work on NANFNKIFLPTIYSIIFL (modifications not checked) [CXCR4 33-50] yielded a counts minus background (counts per 20 min) of 173. In the case of TEEMGSGDYDSMKEPCFR (modifications not checked) [CXCR4 13-30], the counts minus background (counts per 20 min) is reported as 41. FLTGIVGNGLVILVMGYQ (modifications not checked) [CXCR4 49-66] gave a counts minus background (counts per 20 min) of 246. GSGDYDSMKEPCFREENA (modifications not checked) [CXCR4 17-34] gave a counts minus background (counts per 20 min) of -28. For KEPCFREENANFNKIFLP (modifications not checked) [CXCR4 25-42], the counts minus background (counts per 20 min) was 252. ERASSVYTRSTGEQEISV (modifications not checked) [CCR5 333-350] showed a counts minus background (counts per 20 min) of 84. For SDNYTEEMGSGDYDSMKE (modifications not checked) [CXCR4 9-26], the counts minus background (counts per 20 min) was 43. LPTIYSIIFLTGIVGNGL (modifications not checked) [CXCR4 41-58] was tested, and the counts minus background (counts per 20 min) was 118. YSIIFLTGIVGNGLVILV (modifications not checked) [CXCR4 45-62] was tested, and the counts minus background (counts per 20 min) was 123. For QEAPERASSVYTRSTGEQ (modifications not checked) [CCR5 329-346], the counts minus background (counts per 20 min) was 84. AKRFCKCCSIFQQEAPER (modifications not checked) [CCR5 317-334] gave a counts minus background (counts per 20 min) of 64. Molecule CKCCSIFQQEAPERASSV (modifications not checked) [CCR5 321-338] has a counts minus background (counts per 20 min) of 53. Work on IVGNGLVILVMGYQKKLR (modifications not checked) [CXCR4 53-70] yielded a counts minus background (counts per 20 min) of 238. Work on YDSMKEPCFREENANFNK (modifications not checked) [CXCR4 21-38] yielded a counts minus background (counts per 20 min) of 53. SIYTSDNYTEEMGSGDYD (modifications not checked) [CXCR4 5-22] showed a counts minus background (counts per 20 min) of 71. Molecule LPPLYSLVFIFGFVGNML (modifications not checked) [CCR5 33-50] has a counts minus background (counts per 20 min) of 705. SVYTRSTGEQEISVGL (modifications not checked) [CCR5 337-352] gave a counts minus background (counts per 20 min) of 47. MEGISIYTSDNYTEEMGS (modifications not checked) [CXCR4 1-18] gave a counts minus background (counts per 20 min) of 2590. Molecule FREENANFNKIFLPTIYS (modifications not checked) [CXCR4 29-46] has a counts minus background (counts per 20 min) of 51. Molecule NKIFLPTIYSIIFLTGIV (modifications not checked) [CXCR4 37-54] has a counts minus background (counts per 20 min) of 138.

Reference: patent publication US7304127
